B2: PmoA subunit of particulate methane monooxygenase from Methylomicrobium alcaliphilum 20Z (20Z-pMMO) (natural protein, UniProt G4SZ63 2-247, looked up)
chain: SASQSAVRSRAEAVKVSRTFDYMILFTVFFVVLGGYHIHYMLTGGDWDFWTDWKDRRLWVTVAPIVSITFPAAVQAVLWWRYRIAWGATLCVLGLLLGEWINRYFNFWGWTYFPVNFVFPSNLMPGAIVLDVILMLSNSMTLTAVVGGLAWGLLFYPGNWPIIAPLHVPVEYNGMMMTLADLQGYHYVRTGTPEYIRMVEKGTLRTFGKDVAPVSAFFSGFVSILIYFLWHFFGSWFGSEKFVQAA
modifications: initiator methionine removed (MetOFF); N-terminal acetylation (NtAc) on the new N-terminus
notes: PmoA subunit of pMMO, Methylomicrobium alcaliphilum 20Z; theoretical mass of the unmodified subunit 28,257.1 Da; found without the initiator methionine and N-terminally acetylated; also called 20Z-pMMO PmoA; source: endogenous, Mm. alcaliphilum 20Z membranes, solubilized with DDM, purified by anion exchange chromatography

For assay [1], the target named is T1, PmoB subunit of particulate methane monooxygenase from Methylomicrobium alcaliphilum 20Z (20Z-pMMO) (Methylomicrobium alcaliphilum 20Z, UniProt G4SZ64 33-414, methyl-lysine at Lys 36 (~100% stoichiometry)).
T1 construct: PmoB subunit of pMMO, Methylomicrobium alcaliphilum 20Z; residues His 33 to Ile 414 after cleavage of the N-terminal signal peptide; theoretical mass 42,147.17 Da; also called 20Z-pMMO PmoB; source: endogenous, Mm. alcaliphilum 20Z membranes, solubilized with DDM, purified by anion exchange chromatography
T1 sequence (looked up): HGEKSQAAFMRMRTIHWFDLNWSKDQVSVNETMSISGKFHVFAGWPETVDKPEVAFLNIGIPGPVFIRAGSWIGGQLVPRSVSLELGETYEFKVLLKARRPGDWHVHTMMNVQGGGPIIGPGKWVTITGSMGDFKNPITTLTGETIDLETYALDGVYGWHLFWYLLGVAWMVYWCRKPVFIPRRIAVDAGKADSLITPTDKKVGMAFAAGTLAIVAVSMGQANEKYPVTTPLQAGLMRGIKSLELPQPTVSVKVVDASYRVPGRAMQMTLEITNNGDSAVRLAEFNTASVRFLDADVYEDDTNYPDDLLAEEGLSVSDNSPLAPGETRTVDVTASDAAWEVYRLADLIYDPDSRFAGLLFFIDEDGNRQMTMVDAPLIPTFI
Kind of assay: native MS; pMMO solubilized in DDM, exchanged into 200 mM ammonium acetate, pH 7.2, 0.155% (w/v) Triton X-100; protomer ejected from the micelle (MS^1), then subunits ejected from the protomer by collisional activation (MS^2). Particulars: both partners purified.

In assay [2] the target is B2. Put plainly: native MS; pMMO in POPC nanodiscs (MSP2N2 or MSP1E3D1), 200 mM ammonium acetate, pH 7.2; subunits ejected from the pMMO-nanodisc complex by CID at the source (MS^2) and fragmented (MS^3); no intact mass of the complex obtained. The conditions noted are these: both partners purified.

B1: PmoC subunit of particulate methane monooxygenase from Methylomicrobium alcaliphilum 20Z (20Z-pMMO), truncated proteoform (natural protein, UniProt G4SZ62 7-250, looked up)
chain: SVKADAAEAPLLNKKNIIAGASLYLVFYAWVRWYEGVYGWSAGLDSFAPEFETYWMNFLYIEMVLEVLTASVLWGYIWKSRDRKVMSITPREELRRHFTHWTWLMMYGIAIYFGASYFTEQDGTWHQTIVRDTDFTPSHIIEFYLSYPIYIITGGASFLYAKTRLPTYQQGLSLQYLVVVVGPFMILPNVGLNEWGHTFWFMEELFVAPLHYGFVFFGWSALGVLGVINIELGALSKLLKKDLA
notes: PmoC subunit of pMMO, Methylomicrobium alcaliphilum 20Z; the major species is a truncated form without the first six N-terminal residues (MAATTE); theoretical mass of the whole subunit 28,851.4 Da; A minor PmoC species without the initiator methionine and with N-terminal acetylation was also seen from nanodiscs; also called truncated PmoC; 20Z-pMMO PmoC; source: endogenous, Mm. alcaliphilum 20Z …
On to B1, for which the binding result in assay [1] and in assay [2] was “binds” throughout.
As for B2, the binding result in assay [1] is recorded as “binds”.

Source of the values: PMC6572826, “Native top-down mass spectrometry provides insights into the copper centers of membrane-bound methane monooxygenase” (Nature Communications, 2019).
